Test results from publication PMC3680705 (The Journal of biological chemistry, 2006).

Molecular target: T1, Drosophila Slit D2 (second leucine-rich repeat domain) (Drosophila, UniProt P24014 310-526, two N-linked glycans)
T1 sequence: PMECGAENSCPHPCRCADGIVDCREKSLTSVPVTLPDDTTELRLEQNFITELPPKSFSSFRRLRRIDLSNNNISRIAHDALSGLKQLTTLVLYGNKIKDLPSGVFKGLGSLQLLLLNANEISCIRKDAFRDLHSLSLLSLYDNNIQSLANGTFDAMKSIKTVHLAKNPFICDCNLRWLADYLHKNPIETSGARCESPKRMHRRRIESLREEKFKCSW
Assay: SEC

B1: Drosophila Robo IG1–2 (domain or fragment)
chain: not shown
In the case of B1, the “stoichiometry N” value is reported as 1.
